Patent publication US20180369322A1 (published 2018)
Numbered stars: 1 amine (or outer) side, 2 acyl side, 3 side chain; on linkers, the order of the positions; unused ones are H or OH. Bridge positions count the residues as written; N and C are the ends. Square brackets hold non-standard residues; d marks the D form. Primed or numbered codes have the meaning given here. Side chains are listed from the residue outwards. * marks the point of attachment. PEG24′ = polyethylene glycol unit with 24 repeats; Trp(7-aza) = N[C@@H](Cc1c[nH]c2ncccc12)C(=O)O; γGlu = O=C(O)[C@H](CCC(=O)[*:2])N[*:1]; Palmitoyl = CCCCCCCCCCCCCCCC(=O)*; NMeD = CN[C@@H](CC(=O)O)C(=O)O; Chg = N[C@H](C(=O)O)C1CCCCC1; Tle = CC(C)(C)[C@H](N)C(=O)O

Experiments:
Experiment in all cases: cell-based or functional assay
[1] = molecular target: cloned hERG potassium channel (human, UniProt Q12809 1-1159)
Chain of cloned hERG potassium channel (Q12809 whole entry): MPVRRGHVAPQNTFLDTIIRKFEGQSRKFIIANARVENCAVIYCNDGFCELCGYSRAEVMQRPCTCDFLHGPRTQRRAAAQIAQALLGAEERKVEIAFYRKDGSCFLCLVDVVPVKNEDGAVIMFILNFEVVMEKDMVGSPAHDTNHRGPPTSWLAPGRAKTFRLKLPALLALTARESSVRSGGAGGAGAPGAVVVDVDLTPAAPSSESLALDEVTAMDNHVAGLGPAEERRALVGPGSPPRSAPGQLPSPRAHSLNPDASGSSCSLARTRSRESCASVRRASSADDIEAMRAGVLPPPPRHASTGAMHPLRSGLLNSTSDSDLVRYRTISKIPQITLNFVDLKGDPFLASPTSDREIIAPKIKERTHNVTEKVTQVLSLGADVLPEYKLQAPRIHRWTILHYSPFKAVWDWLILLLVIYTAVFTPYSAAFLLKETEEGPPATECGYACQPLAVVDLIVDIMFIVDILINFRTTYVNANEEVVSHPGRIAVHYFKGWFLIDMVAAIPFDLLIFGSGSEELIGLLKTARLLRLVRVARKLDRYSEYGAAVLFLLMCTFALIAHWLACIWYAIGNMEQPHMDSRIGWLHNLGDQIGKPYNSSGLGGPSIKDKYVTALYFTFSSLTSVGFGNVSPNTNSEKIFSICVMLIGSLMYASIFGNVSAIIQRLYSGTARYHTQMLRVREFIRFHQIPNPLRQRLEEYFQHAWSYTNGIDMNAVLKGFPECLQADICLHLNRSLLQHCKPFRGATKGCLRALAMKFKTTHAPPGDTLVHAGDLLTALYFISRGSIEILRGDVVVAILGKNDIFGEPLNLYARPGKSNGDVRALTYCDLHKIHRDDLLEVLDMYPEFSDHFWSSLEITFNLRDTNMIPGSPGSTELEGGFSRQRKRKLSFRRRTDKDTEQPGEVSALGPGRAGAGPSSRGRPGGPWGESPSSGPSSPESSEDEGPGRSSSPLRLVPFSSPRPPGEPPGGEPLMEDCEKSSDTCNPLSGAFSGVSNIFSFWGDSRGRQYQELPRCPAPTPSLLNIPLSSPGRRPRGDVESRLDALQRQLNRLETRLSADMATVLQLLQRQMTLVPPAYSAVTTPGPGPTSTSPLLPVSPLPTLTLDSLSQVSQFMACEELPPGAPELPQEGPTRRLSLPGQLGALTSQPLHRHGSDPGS

[2] = molecular target: dog C5 (dog)
Chain of dog C5 (dog) (P01031 whole entry): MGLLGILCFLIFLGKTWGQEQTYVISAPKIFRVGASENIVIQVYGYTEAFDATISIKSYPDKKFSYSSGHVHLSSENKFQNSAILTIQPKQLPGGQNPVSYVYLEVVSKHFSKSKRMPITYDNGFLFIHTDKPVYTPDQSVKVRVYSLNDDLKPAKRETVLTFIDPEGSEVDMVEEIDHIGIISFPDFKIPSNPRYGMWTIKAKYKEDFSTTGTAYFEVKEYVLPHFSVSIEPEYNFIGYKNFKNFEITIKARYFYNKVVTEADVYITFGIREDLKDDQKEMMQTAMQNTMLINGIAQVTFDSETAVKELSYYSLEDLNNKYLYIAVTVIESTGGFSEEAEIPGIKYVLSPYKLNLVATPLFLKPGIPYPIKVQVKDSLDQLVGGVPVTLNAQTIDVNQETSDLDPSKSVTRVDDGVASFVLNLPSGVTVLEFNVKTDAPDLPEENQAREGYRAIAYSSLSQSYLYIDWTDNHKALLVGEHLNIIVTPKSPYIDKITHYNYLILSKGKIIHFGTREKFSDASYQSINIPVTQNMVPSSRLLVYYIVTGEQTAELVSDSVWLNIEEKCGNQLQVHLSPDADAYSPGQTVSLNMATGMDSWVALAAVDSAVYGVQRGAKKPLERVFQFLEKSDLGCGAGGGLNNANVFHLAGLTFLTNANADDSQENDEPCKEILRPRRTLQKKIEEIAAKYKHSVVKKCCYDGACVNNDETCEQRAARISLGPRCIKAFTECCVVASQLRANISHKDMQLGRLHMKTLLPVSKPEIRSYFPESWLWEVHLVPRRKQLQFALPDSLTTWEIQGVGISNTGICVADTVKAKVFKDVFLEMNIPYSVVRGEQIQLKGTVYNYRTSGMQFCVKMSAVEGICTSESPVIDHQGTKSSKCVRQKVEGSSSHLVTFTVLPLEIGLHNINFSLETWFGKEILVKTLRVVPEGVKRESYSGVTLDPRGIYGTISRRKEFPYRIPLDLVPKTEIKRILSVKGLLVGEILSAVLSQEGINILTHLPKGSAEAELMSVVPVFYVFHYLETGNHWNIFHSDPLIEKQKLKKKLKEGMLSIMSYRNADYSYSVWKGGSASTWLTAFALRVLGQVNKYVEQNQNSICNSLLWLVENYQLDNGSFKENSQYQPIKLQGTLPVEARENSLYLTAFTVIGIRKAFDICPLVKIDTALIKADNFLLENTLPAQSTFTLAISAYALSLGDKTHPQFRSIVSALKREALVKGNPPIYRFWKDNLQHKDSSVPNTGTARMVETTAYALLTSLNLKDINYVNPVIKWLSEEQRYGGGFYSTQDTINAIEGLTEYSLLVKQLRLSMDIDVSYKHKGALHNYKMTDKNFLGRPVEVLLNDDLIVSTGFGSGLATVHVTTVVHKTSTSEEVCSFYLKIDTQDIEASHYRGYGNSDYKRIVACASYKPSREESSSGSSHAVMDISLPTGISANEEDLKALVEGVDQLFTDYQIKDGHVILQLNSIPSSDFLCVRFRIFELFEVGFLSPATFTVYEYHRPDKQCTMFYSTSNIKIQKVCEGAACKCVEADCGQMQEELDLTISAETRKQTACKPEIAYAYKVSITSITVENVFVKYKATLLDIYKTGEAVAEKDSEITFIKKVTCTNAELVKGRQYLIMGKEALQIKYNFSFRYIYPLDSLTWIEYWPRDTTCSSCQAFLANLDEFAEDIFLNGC

[3] = molecular target: human C5 (human, UniProt P01031 19-1676)
Chain of human C5 (P01031 19-1676 limits assumed): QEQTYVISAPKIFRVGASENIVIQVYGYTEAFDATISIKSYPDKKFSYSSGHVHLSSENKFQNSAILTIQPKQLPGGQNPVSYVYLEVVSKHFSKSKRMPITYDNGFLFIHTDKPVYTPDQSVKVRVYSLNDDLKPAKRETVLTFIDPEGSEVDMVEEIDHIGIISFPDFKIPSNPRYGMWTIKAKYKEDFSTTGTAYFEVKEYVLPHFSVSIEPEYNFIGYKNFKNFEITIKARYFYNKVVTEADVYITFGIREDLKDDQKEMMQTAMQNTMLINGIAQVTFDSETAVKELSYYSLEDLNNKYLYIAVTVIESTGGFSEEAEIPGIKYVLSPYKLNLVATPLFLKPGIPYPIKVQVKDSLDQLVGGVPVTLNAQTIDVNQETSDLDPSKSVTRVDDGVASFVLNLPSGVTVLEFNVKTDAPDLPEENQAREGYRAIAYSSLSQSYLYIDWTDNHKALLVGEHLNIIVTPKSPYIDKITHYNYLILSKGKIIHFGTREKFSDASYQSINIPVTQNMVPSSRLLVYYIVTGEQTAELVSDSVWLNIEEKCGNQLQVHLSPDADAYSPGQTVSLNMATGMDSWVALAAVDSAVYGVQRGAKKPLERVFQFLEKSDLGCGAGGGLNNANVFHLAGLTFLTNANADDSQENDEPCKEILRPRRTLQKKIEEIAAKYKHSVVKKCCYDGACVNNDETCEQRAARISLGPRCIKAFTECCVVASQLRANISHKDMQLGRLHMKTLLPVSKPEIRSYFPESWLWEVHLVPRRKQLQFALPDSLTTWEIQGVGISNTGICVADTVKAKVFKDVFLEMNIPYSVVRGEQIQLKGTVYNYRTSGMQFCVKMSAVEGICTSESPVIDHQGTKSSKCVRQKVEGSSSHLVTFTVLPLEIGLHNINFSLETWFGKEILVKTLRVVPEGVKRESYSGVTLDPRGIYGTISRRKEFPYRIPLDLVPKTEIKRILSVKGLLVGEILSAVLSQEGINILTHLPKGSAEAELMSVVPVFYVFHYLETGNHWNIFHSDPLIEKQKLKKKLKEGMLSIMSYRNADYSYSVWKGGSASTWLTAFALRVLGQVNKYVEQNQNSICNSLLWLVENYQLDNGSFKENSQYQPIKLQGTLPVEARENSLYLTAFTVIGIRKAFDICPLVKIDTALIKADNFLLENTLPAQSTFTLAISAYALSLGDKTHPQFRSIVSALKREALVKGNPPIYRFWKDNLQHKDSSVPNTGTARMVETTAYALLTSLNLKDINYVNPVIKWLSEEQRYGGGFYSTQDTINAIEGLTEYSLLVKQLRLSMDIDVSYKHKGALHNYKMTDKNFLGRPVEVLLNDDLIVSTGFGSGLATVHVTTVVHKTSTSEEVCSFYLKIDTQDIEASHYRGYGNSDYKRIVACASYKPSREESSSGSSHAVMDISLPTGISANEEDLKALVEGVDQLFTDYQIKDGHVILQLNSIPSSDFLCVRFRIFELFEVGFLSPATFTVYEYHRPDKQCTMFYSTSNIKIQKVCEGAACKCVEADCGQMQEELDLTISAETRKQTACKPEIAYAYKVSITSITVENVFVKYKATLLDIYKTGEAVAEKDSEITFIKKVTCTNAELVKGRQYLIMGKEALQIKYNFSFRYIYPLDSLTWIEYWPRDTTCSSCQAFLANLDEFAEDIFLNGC

[4] = molecular target: rabbit C5 (rabbit)
Chain of rabbit C5 (rabbit) (P01031 whole entry): as the sequence (P01031 whole entry) above

Ac-KVERFD[NMeD][Tle]Y[Trp(7-aza)]EYP[Chg]K([PEG24′-γGlu-Palmitoyl])-OH (lactam 1-6) [R5000]
IC50 of inhibition of hERG potassium channel current (parallel patch-clamp, HEK293 cells) [1]: > 300 µM
IC50 of inhibition of red blood cell hemolysis, dog serum/plasma [2]: > 4.7 µM
IC50 of inhibition of red blood cell hemolysis, human serum/plasma [3]: 0.0066 µM
IC50 of inhibition of red blood cell hemolysis, rabbit serum/plasma [4]: > 67 µM
